Measured values taken from patent US20080274480A1.

Target: BoNT/A receptor on mouse brain synaptosomes (mouse)

How did the percent inhibition at 2.0 µg turn out when “active BoNT/A toxin (Metabiologics, Inc.), unlabeled (from UniProt P0DPI1 2-1296)” was run?
The percent inhibition at 2.0 µg was 78%.
